These results are taken from patent publication US6218168A, “Process for preparing O-acetylserine, L-cysteine and L-cysteine-related products” (Consortium fur elektrochemische Inudstrie GmbH, priority 1995, dated 2001).

For one assay, the target named is serine acetyltransferase. The assay can be described thus: Serine acetyltransferase enzyme activity test with and without L-cysteine (inhibitor constant Ki, specific activity). To be noted: for Ki: inhibitor L-cysteine. In kind it is biochemical, E. coli. The source says: Any method which enables the activity of the serine acetyltransferase to be determined in the presence of cysteine can be used for determining the cysteine sensitivity of this enzyme. For example, the serine acetyltransferase activity can be determined using the method described by Kredich and Tomkins, J. Biol. Chem. 241: 4955-4965 (1966). In this test, the enzyme test mixture contains the substrate, L-serine, and the cofactor, acetyl-coenzyme A. The reaction is started by adding enzyme and monitored, in a spectro photometer, by observing the decrease in absorption at 232 nm which is elicited by the cleavage of the thioester bond in the acetyl-coenzyme A.
The above-described enzyme test is suitable for determining the cysteine sensitivity of any serine acetyltransferase enzyme, including the enzymes which have a modified carboxyl terminus. Inhibition of the serine acetyltransferase activity is tested in the presence of differing concentrations of L-cysteine in the reaction mixture. The catalytic activity of the different serine acetyltransferase enzymes is determined in the presence and absence of L-cysteine, and the inhibitor constant, Ki, is ascertained from this (Kredich and Tomkins, J. Biol. Chem., 241, 4955-4965 (1966)).
In order to investigate the biochemical basis of the cysteine secretion of the revertants, the activity of the serine acetyltransferase was determined in vitro, and the ability of cysteine to inhibit the enzyme was measured. For the determination, use was made of S30 extracts (cell homogenates centrifuged at 30,000 g and 4° C. for 20 minutes) of the selected revertants, the starting strains and the comparison strain, E. coli W3110 (ATTC 27325).
The biochemical parameters such as enzyme activity and inhibitor constant, Ki, were determined in an analogous manner to that described in Example 1.
The plasmids resulting from this cloning were designated pACYC184/cysE-Del in accordance with the extent of their deletion (cf. FIG. 9 for the plasmid map). Determination of the enzymic activity and the inhibitor constant, Ki, and also the cross-feeding test, were carried out in analogy with the description in Example 1. DNA sequence analysis was used to confirm that the deletions had been correctly introduced.
Determination of the enzymic activity and of the inhibitor constant Ki, and also the cross-feeding test, were carried out in analogy with the description in Example 1.

Another assay has as its system production strain JM15. Put plainly: Cysteine production in 1 L fermenter, JM15 with plasmid-encoded cysE alleles. The assay is classed as cell-based, E. coli. To be noted: 48 h, JM15 transformed with plasmid. As for the experimental part:
Influence of different, plasmid-encoded cysE alleles on the production of L-cysteine or products derived from L-cysteine in a 1 L fermenter using the host strain JM15 20 mL of LB medium (1% tryptone, 0.5% yeast extract, 0.5% NaCl) contained in a 100 mL Erlenmeyer flask were inoculated with a single colony of the production strain JM15 (CGSC#5042) which had been transformed with the respective cysE plasmid.
After having been incubated for 7 hours in a bacterial shaker (30° C., 150 rpm), the respective preliminary cultures were transferred to 100 mL of SM1 medium. The SM1 medium contained 5 g/L glucose, 5 mg/L vitamin B1, 3 g/l KH2 PO4, 12 g/L K2 HPO4, 0.3 g/L MgSO4×7 H2 O, 0.1 g/L NaCl, 5 g/L (NH4)2 SO4, 14.7 mg/L CaCl2×2 H2 O, 2 mg/L FeSO4×2 H2 O, 1 g/L Na3 citrate×2 H2 O, 1 ml/L trace element solution and 25 mg/L tetracycline. The trace element solution was composed of 0.15 g/L Na2 MoO4×2 H2 O, 2.5 g/L H3 BO3, 0.7 g/L CoCl2×6 H2 O, 0.25 g/L CuSO4×5 H2 O, 1.6 g/L MnCl2×4 H2 O and 0.3 g/L ZnSO4×7 H2 O. The cultures were shaken in 1 L Erlenmeyer flasks at 30° C. and at 150 rpm for 17 h. After this incubation, the OD600 was between 4 and 5. The subsequent fermentation was carried out in Braun-Melsungen BIOSTAT M research fermenters. A culturing vessel having a total volume of 2 L was used.
The fermentation medium contained 15 g/L glucose, 5 g/L NaCl, 0.3 g/L MgSO4×7 H2 O, 15 mg/L CaCl2×2 H2 O, 75 mg/L FeSO4×7 H2 O, 1 g/L Na3 citrate×2 H2 O, 1.5 g/L KH2 PO4, 1 mL of trace element solution (see above), 5 mg/L vitamin B1, 2.5 g/L yeast extract (Difco), 2.5 g/L tryptone (Difco) and 25 mg/L tetracycline.
The glucose concentration in the fermenter was initially adjusted to a value of 15 g/L by pumping in a 700 g/L (w/v) (sterilized) glucose solution, and the pH was adjusted to 7.0 by pumping in a 25% NH4 OH solution. After an OD600 of 10 had been reached, 300 mg per hour were supplied from a sterile 100 g/L (w/v) stock solution of thiosulfate. 100 mL of preliminary culture were pumped into the fermenter vessel for the inoculation. The starting volume was approximately 1 L. The cultures were initially stirred at 400 rpm and aerated with 1.5 vvm of compressed air which had been sterilized by passing through a sterile filter. The fermentation was carried out at a temperature of 30° C.
The pH was maintained at a value of 7.0 by means of automatic correction with 25% NH4 OH. The oxygen saturation in the fermentation broth had at no time during the fermentation to fall below 20%; the stirring speed was used to ensure this. The glucose content of the nutrient solution, the optical density and the cysteine content were determined at two- to three-hourly intervals. The glucose content was determined enzymically using a glucose analyzer from YSI. The concentration of the glucose was adjusted to between 10 and 20 g/L by means of continuously feeding in this compound.
The content of cysteine in the medium was determined […] from the cell-free super-natant of the sample using the method of Gaitonde, M. K. (1967), Biochem. J. 104, 627-633.
The fermentation was terminated after 44-50 h.

Another assay deals with JM15attλ::cysE strains. Put plainly: Cysteine production in 1 L fermenter, chromosomally encoded cysE alleles. The following applies: single chromosomal copy. The assay is classed as cell-based, E. coli. Here is the method:
For the purpose of being integrated into the chromosomal attachment site (attλ), the cysE alleles cysEIV, cysEX and cysEXI were cloned into the plasmid pRS551 (Simons et al., 1987, Gene 53: 85-96). For this, each cysE allele was amplified by PCR from the corresponding cysE plasmid. The oligonucleotides which were used, i.e. cysE-fwl and cysE-revl, are described in Example 1. The amplification was carried out as described in Example 3. The resulting fragments were cleaved with EcoRI/BamHI, purified through an agarose gel and ligated into vector pRS551 which had been cleaved with EcoRI and BamHI. This afforded the vector pRS551-based recombinant plasmids pRScysEIV, X and XI.
A heterogeneous lambda lysate, which contained recombinant cysE allele-carrying λRS45 derivatives in addition to λRS45 phages, was produced in vivo by homologous recombination by means of preparing a plate lysate on a pRScysE-carrying recA^+ strain (e.g. YMC9, ATCC 3397) using the λRS45 phage (Simons et al., 1987, Gene 53: 85-96).
The cysE strain JM15, which was infected with the heterogeneous lambda lysate and subsequently plated on kanamycin-containing (25 mg/L) LB plates, was used for selecting for the recombinant RS45 derivatives. The lysogenic, kanamycin-resistant clones which were obtained were then tested for their ability to grow on minimal medium plates without cysteine. A clone which was in each case cysteine-prototrophic was selected and used for preparing a homogeneous cysE λ lysate (by means of UV induction, Simons et al., 1987, Gene 53: 85-96).
The JM15 stain was infected with these homogeneous cysE λ lysates which were obtained in each case. The resulting JM15attλ::cysE strains were cultured as described in Example 6. Instead of tetracycline, the respective media in each case contained 25 mg of kanamycin per L as the selection agent.

[1] abbreviates: Table 1a, 1 mM L-serine, 0.1 mM acetyl-CoA.
Setting [2] is: Table 1a, serine acetyltransferase activity.
Setting [3] is: Table 2, alleles from chemical mutagenesis.
Where [4] appears, read: Table 4, alleles from site-specific mutagenesis.
The mark [5] stands for this setting: Table 1b, carboxyterminal deletions.

B1: cysEX: mutant Thr167->Ala167 (protein, UniProt P0A9D4 1-273, looked up, variant T167A)
Serine acetyltransferase: MSCEELEIVWNNIKAEARTLADCEPMLASFYHATLLKHENLGSALSYMLANKLSSPIMPAIAIREVVEEAYAADPEMIASAACDIQAVRTRDPAVDKYSTPLLYLKGFHALQAYRIGHWLWNQGRRALAIFLQNQVSVTFQVDIHPAAKIGRGIMLDHATGIVVGEAAVIENDVSILQSVTLGGTGKSGGDRHPKIREGVMIGAGAKILGNIEVGRGAKIGAGSVVLQPVPPHTTAAGVPARIVGKPDSDKPSMDMDQHFNGINHTFEYGDGI
On to B1, for which the inhibition constant Ki on serine acetyltransferase (setting [1]) and on serine acetyltransferase (setting [3]) was 50 µM each time. This molecule also gave a spec. act. in the assay on serine acetyltransferase (setting [2]) of 0.156 µmol/min/mg. In the assay with production strain JM15, this molecule came in with a Cysteine yield of 3.4 g/L. Besides, the yields of cysteine in the assay with JM15attλ::cysE strains is recorded as 1.8 g/L.

B2: cysEXII: triple mutant Lys97->Gln97, Gly238->Ser238, Phe267->Leu267 (protein, UniProt P0A9D4 1-273, looked up, variant K97Q G238S F267L)
Serine acetyltransferase: MSCEELEIVWNNIKAEARTLADCEPMLASFYHATLLKHENLGSALSYMLANKLSSPIMPAIAIREVVEEAYAADPEMIASAACDIQAVRTRDPAVDQYSTPLLYLKGFHALQAYRIGHWLWNQGRRALAIFLQNQVSVTFQVDIHPAAKIGRGIMLDHATGIVVGETAVIENDVSILQSVTLGGTGKSGGDRHPKIREGVMIGAGAKILGNIEVGRGAKIGAGSVVLQPVPPHTTAASVPARIVGKPDSDKPSMDMDQHFNGINHTLEYGDGI
As for B2, the inhibition constant (Ki) at serine acetyltransferase (setting [1]) and at serine acetyltransferase (setting [3]) was 40 µM each time. Further, the spec. act. with serine acetyltransferase (setting [2]) turned out to be 0.254 µmol/min/mg. This molecule returned a Cysteine yield with production strain JM15 of 1.2 g/L.

B3: cysEV: triple mutant Val237, Ser238, Ile256 (protein, UniProt P0A9D4 1-273, looked up, variant A237V G238S M256I)
Serine acetyltransferase: MSCEELEIVWNNIKAEARTLADCEPMLASFYHATLLKHENLGSALSYMLANKLSSPIMPAIAIREVVEEAYAADPEMIASAACDIQAVRTRDPAVDKYSTPLLYLKGFHALQAYRIGHWLWNQGRRALAIFLQNQVSVTFQVDIHPAAKIGRGIMLDHATGIVVGETAVIENDVSILQSVTLGGTGKSGGDRHPKIREGVMIGAGAKILGNIEVGRGAKIGAGSVVLQPVPPHTTAVSVPARIVGKPDSDKPSMDIDQHFNGINHTFEYGDGI
As to B3, the Ki on serine acetyltransferase (setting [1]) and at serine acetyltransferase (setting [4]) was 10 µM throughout. The molecule also returned a spec. act. in the assay on serine acetyltransferase (setting [2]) of 0.246 µmol/min/mg. In the assay on production strain JM15, this molecule yielded a Cysteine yield of 1.3 g/L.

B4: cysEXXIII: triple mutant Ala167, Val237, Ser238 (protein, UniProt P0A9D4 1-273, looked up, variant T167A A237V G238S)
Serine acetyltransferase: MSCEELEIVWNNIKAEARTLADCEPMLASFYHATLLKHENLGSALSYMLANKLSSPIMPAIAIREVVEEAYAADPEMIASAACDIQAVRTRDPAVDKYSTPLLYLKGFHALQAYRIGHWLWNQGRRALAIFLQNQVSVTFQVDIHPAAKIGRGIMLDHATGIVVGEAAVIENDVSILQSVTLGGTGKSGGDRHPKIREGVMIGAGAKILGNIEVGRGAKIGAGSVVLQPVPPHTTAVSVPARIVGKPDSDKPSMDMDQHFNGINHTFEYGDGI
With B4, the inhibitory constant (Ki) at serine acetyltransferase (setting [1]) and on serine acetyltransferase (setting [4]) was 2300 µM throughout. Besides, in the assay with serine acetyltransferase (setting [2]), the spec. act. stood at 0.085 µmol/min/mg. In the assay with production strain JM15, this molecule had a Cysteine yield of 2.7 g/L.

B5: cysEVI: double mutant Ser238, Ile256 (protein, UniProt P0A9D4 1-273, looked up, variant G238S M256I)
Serine acetyltransferase: MSCEELEIVWNNIKAEARTLADCEPMLASFYHATLLKHENLGSALSYMLANKLSSPIMPAIAIREVVEEAYAADPEMIASAACDIQAVRTRDPAVDKYSTPLLYLKGFHALQAYRIGHWLWNQGRRALAIFLQNQVSVTFQVDIHPAAKIGRGIMLDHATGIVVGETAVIENDVSILQSVTLGGTGKSGGDRHPKIREGVMIGAGAKILGNIEVGRGAKIGAGSVVLQPVPPHTTAASVPARIVGKPDSDKPSMDIDQHFNGINHTFEYGDGI
As to B5, the Ki on serine acetyltransferase (setting [1]) and on serine acetyltransferase (setting [4]) was 10 µM throughout. Besides, in the assay on serine acetyltransferase (setting [2]), the spec. act. stood at 0.075 µmol/min/mg. Also, the Cysteine yield in the assay on production strain JM15 is given as 1.4 g/L.

B6: cysE-Del255: carboxyterminal deletion of 18 amino acids, terminal Asp255 (protein, UniProt P0A9D4 1-255, looked up, fragment)
chain: MSCEELEIVWNNIKAEARTLADCEPMLASFYHATLLKHENLGSALSYMLANKLSSPIMPAIAIREVVEEAYAADPEMIASAACDIQAVRTRDPAVDKYSTPLLYLKGFHALQAYRIGHWLWNQGRRALAIFLQNQVSVTFQVDIHPAAKIGRGIMLDHATGIVVGETAVIENDVSILQSVTLGGTGKSGGDRHPKIREGVMIGAGAKILGNIEVGRGAKIGAGSVVLQPVPPHTTAAGVPARIVGKPDSDKPSMD
Regarding B6, in the assay with serine acetyltransferase (setting [5]), the spec. act. is 0.624 μmol/min x mg; the Ki (in general, the dissociation constant of the complex between target and ligand, obtained from inhibition or displacement) turned out to be 30 µM. At serine acetyltransferase (Table 6, carboxyterminal deletions), this molecule showed a Ki of 30 µM. In the assay on production strain JM15, this molecule came in with a Cysteine yield of 3.9 g/L.
